Laboratory results taken from publication PMC7094404 (Archives of Biochemistry and Biophysics, 2008).

Key:
[1] = target: SARS-CoV main protease Δ(297–306) (SARS-CoV); assay: AUC
[2] = target: SARS-CoV main protease Δ(298–306) (SARS-CoV); assay: AUC
[3] = target: SARS-CoV main protease Δ(301–306) (SARS-CoV)
[4] = target: SARS-CoV main protease Δ(302–306) (SARS-CoV); assay: AUC
[5] = target: SARS-CoV main protease Δ(303–306) (SARS-CoV)
[6] = target: SARS-CoV main protease Δ(303–306) (SARS-CoV); assay: AUC
[7] = target: SARS-CoV main protease Δ(304–306) (SARS-CoV)
[8] = target: SARS-CoV main protease Δ(304–306) (SARS-CoV); assay: AUC
[9] = target: SARS-CoV main protease Δ(305–306) (SARS-CoV)
[10] = target: SARS-CoV main protease Δ(305–306) (SARS-CoV); assay: AUC
[11] = target: SARS-CoV main protease Δ(306) (SARS-CoV)
[12] = target: SARS-CoV main protease Δ(306) (SARS-CoV); assay: AUC

With “SARS-CoV main protease Δ(297–306) (domain or fragment)” the Kd [1] was 393 µM and the koff [1] was 123 s⁻¹.

For “SARS-CoV main protease Δ(298–306) (domain or fragment)”, the Kd [2] was 313 µM and the koff [2] was 36 s⁻¹.

Substance “SARS-CoV main protease Δ(301–306) (domain or fragment)” has a catalytic constant kcat for the 11-mer peptide ABZ-…-DNP [3] of 0.025 s⁻¹.

Substance “SARS-CoV main protease Δ(302–306) (domain or fragment)” has a koff [4] of 0.01 s⁻¹.

“SARS-CoV main protease Δ(303–306) (domain or fragment)” showed a catalytic constant kcat for the 11-mer peptide ABZ-…-DNP [5] of 0.022 s⁻¹ and a Kd [6] of 340 nM.

Substance “SARS-CoV main protease Δ(304–306) (domain or fragment)” has a catalytic constant kcat for the 11-mer peptide ABZ-…-DNP [7] of 0.027 s⁻¹ and a koff [8] of 0.01 s⁻¹.

In the case of “SARS-CoV main protease Δ(305–306) (domain or fragment)”, the catalytic constant kcat for the 11-mer peptide ABZ-…-DNP [9] is reported as 0.039 s⁻¹, the Kd [10] is reported as 80 nM and the koff [10] is reported as 0.14 s⁻¹.

Substance “SARS-CoV main protease Δ(306) (domain or fragment)” has a catalytic constant kcat for the 11-mer peptide ABZ-…-DNP [11] of 0.043 s⁻¹, a Kd [12] of 100 nM and a koff [12] of 0.6 s⁻¹.
